Read-outs that look alike come from different tables or passages of the source.
T1: recombinant cyno Tie2 extracellular domain (cynomolgus monkey, UniProt Q02763 23-748 (human entry))
T1 construct: also called Recombinant cyno Tie2 ECD; cy Tie2
T1 chain: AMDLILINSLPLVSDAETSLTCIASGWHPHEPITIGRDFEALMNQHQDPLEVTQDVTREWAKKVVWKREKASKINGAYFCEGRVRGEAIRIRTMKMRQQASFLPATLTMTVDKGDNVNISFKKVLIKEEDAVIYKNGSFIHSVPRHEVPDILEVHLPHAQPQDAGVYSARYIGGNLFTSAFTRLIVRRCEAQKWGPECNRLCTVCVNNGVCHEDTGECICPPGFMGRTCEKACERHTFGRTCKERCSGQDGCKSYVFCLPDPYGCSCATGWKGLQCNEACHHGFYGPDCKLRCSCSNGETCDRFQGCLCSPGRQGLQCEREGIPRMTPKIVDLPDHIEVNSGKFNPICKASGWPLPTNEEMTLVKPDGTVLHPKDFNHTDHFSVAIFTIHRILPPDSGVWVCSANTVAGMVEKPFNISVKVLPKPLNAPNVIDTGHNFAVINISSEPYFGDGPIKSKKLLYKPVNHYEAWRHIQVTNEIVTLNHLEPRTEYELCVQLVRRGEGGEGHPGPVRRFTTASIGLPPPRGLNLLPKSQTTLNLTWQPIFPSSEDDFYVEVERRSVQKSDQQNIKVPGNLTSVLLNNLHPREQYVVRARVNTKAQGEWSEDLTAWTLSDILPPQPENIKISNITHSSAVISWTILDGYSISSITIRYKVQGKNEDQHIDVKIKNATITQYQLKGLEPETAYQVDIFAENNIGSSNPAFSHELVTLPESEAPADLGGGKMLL


Assays:
Test in all cases: SPR, IgG captured, 37C
[1] = biological target: T1, recombinant cyno Tie2 extracellular …
Description: (§1) A human antibody capture chip was prepared using a Series S CM5 chip (GE Life Sciences), a human antibody capture kit (GE Life Sciences) and an amine coupling kit (GE Life Sciences). Antibodies diluted to 5 μg/ml in running buffer (10 mM HEPES, 150 mM NaCl, 0.05% Tween 20, 1 mM EDTA, pH 7.4) were non-covalently captured using a contact time of 20 seconds and a flow rate of 10 μl/minute. Binding to 300 nM and 1500 nM recombinant Tie2 was analyzed at 37° C. using a Single Cycle Kinetics method with a contact time of 60 seconds, a dissociation time of 120 seconds and a flow rate of 50 μl/min. Between cycles, the surface was regenerated by a 30 second injection of 3M MgCl₂ at a flow rate of 30 μl/min. Values for antibody capture levels and analyte binding levels were obtained from the Report Point Table (Biacore Evaluation Software v3.0, GE Life Sciences). […] Table 16: Experiment A; Table 17: Experiment B.

[2] = biological target: T2, recombinant human Tie2 extracellular domain (human, UniProt Q02763 23-748)
T2 construct: whole entry named; also called Recombinant human Tie2 ECD; hu Tie2
T2 sequence (Q02763 23-748 limits assumed): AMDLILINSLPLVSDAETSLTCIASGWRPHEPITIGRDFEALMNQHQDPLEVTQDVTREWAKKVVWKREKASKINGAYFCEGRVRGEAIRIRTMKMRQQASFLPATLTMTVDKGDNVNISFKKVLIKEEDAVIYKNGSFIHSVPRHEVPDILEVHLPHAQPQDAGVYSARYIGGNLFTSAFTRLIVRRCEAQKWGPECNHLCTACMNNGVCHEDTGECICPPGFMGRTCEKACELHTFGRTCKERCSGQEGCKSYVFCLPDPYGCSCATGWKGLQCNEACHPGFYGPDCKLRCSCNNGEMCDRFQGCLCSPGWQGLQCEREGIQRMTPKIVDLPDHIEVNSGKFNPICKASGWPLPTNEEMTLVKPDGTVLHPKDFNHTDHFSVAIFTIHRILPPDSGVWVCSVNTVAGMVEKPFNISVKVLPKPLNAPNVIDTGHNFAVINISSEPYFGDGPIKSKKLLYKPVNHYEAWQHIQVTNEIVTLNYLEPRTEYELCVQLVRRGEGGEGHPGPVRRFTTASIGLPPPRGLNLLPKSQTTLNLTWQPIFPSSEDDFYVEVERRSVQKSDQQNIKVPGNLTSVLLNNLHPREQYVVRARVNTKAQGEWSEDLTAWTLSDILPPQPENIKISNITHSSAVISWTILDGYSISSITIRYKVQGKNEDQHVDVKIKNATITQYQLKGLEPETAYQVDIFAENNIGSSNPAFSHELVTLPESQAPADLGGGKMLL
Description: as §1

[3] = biological target: T1, recombinant cyno Tie2 extracellular …
Description: as §1

[4] = biological target: T2, recombinant human Tie2 extracellular …; remark: listed apart in the source
Description: as §1

Binder	Normalized Binding Signal, 300 nM [1]	Normalized Binding Signal, 1500 nM [1]	Normalized Binding Signal, 300 nM [2]	Normalized Binding Signal, 1500 nM [2]	Normalized Binding Signal, 300 nM [3]	Normalized Binding Signal, 1500 nM [3]	Normalized Binding Signal, 300 nM [4]	Normalized Binding Signal, 1500 nM [4]
Tie2.1.M100cA (antibody, IgG1, name in Kabat numbering, V domains shown, hIgG1) VH: EVQLVESGGGLVQPGGSLRLSCAASGFTFSNTDISWVRQAPGKGLEWVGRISPSDGNTYYADSVKGRFTISADTSKNTAYLQMNSLRAEDTAVYYCARRTRWASWAADYWGQGTLVTVSS VL: DIQMTQSPSSLSASVGDRVTITCRASQDVSTAVAWYQQKPGKAPKLLIYSASFLYSGVPSRFSGSGSGTDFTLTISSLQPEDFATYYCQQSYTTPPTFGQGTKVEIKR	0.03	0.13	0.03	0.14	–	–	–	–
Tie2.1.M100cC (antibody, IgG1, name in Kabat numbering, V domains shown, hIgG1) VH: EVQLVESGGGLVQPGGSLRLSCAASGFTFSNTDISWVRQAPGKGLEWVGRISPSDGNTYYADSVKGRFTISADTSKNTAYLQMNSLRAEDTAVYYCARRTRWASWACDYWGQGTLVTVSS VL: DIQMTQSPSSLSASVGDRVTITCRASQDVSTAVAWYQQKPGKAPKLLIYSASFLYSGVPSRFSGSGSGTDFTLTISSLQPEDFATYYCQQSYTTPPTFGQGTKVEIKR	0.1	0.35	0.11	0.37	–	–	–	–
Tie2.1.M100cG (antibody, IgG1, name in Kabat numbering, V domains shown, hIgG1) VH: EVQLVESGGGLVQPGGSLRLSCAASGFTFSNTDISWVRQAPGKGLEWVGRISPSDGNTYYADSVKGRFTISADTSKNTAYLQMNSLRAEDTAVYYCARRTRWASWAGDYWGQGTLVTVSS VL: DIQMTQSPSSLSASVGDRVTITCRASQDVSTAVAWYQQKPGKAPKLLIYSASFLYSGVPSRFSGSGSGTDFTLTISSLQPEDFATYYCQQSYTTPPTFGQGTKVEIKR	0.05	0.2	0.06	0.21	–	–	–	–
Tie2.1.M100cH (antibody, IgG1, name in Kabat numbering, V domains shown, hIgG1) VH: EVQLVESGGGLVQPGGSLRLSCAASGFTFSNTDISWVRQAPGKGLEWVGRISPSDGNTYYADSVKGRFTISADTSKNTAYLQMNSLRAEDTAVYYCARRTRWASWAHDYWGQGTLVTVSS VL: DIQMTQSPSSLSASVGDRVTITCRASQDVSTAVAWYQQKPGKAPKLLIYSASFLYSGVPSRFSGSGSGTDFTLTISSLQPEDFATYYCQQSYTTPPTFGQGTKVEIKR	0.1	0.36	0.11	0.39	–	–	–	–
Tie2.1.M100cI (antibody, IgG1, name in Kabat numbering, V domains shown, hIgG1) VH: EVQLVESGGGLVQPGGSLRLSCAASGFTFSNTDISWVRQAPGKGLEWVGRISPSDGNTYYADSVKGRFTISADTSKNTAYLQMNSLRAEDTAVYYCARRTRWASWAIDYWGQGTLVTVSS VL: DIQMTQSPSSLSASVGDRVTITCRASQDVSTAVAWYQQKPGKAPKLLIYSASFLYSGVPSRFSGSGSGTDFTLTISSLQPEDFATYYCQQSYTTPPTFGQGTKVEIKR	0.03	0.13	0.03	0.14	0.03	0.12	0.04	0.14

Further lines, results first:

Normalized Binding Signal, 300 nM [1]	Normalized Binding Signal, 1500 nM [1]	Normalized Binding Signal, 300 nM [2]	Normalized Binding Signal, 1500 nM [2]	Normalized Binding Signal, 300 nM [3]	Normalized Binding Signal, 1500 nM [3]	Normalized Binding Signal, 300 nM [4]	Normalized Binding Signal, 1500 nM [4]	Binder
0.1	0.39	0.12	0.41	0.11	0.4	0.13	0.42	Tie2.1.M100cL (antibody, IgG1, name in Kabat numbering, V domains shown, hIgG1) VH: EVQLVESGGGLVQPGGSLRLSCAASGFTFSNTDISWVRQAPGKGLEWVGRISPSDGNTYYADSVKGRFTISADTSKNTAYLQMNSLRAEDTAVYYCARRTRWASWALDYWGQGTLVTVSS VL: DIQMTQSPSSLSASVGDRVTITCRASQDVSTAVAWYQQKPGKAPKLLIYSASFLYSGVPSRFSGSGSGTDFTLTISSLQPEDFATYYCQQSYTTPPTFGQGTKVEIKR
0.02	0.09	0.02	0.1	–	–	–	–	Tie2.1.M100cT (antibody, IgG1, name in Kabat numbering, V domains shown, hIgG1) VH: EVQLVESGGGLVQPGGSLRLSCAASGFTFSNTDISWVRQAPGKGLEWVGRISPSDGNTYYADSVKGRFTISADTSKNTAYLQMNSLRAEDTAVYYCARRTRWASWATDYWGQGTLVTVSS VL: DIQMTQSPSSLSASVGDRVTITCRASQDVSTAVAWYQQKPGKAPKLLIYSASFLYSGVPSRFSGSGSGTDFTLTISSLQPEDFATYYCQQSYTTPPTFGQGTKVEIKR
0.05	0.2	0.06	0.22	–	–	–	–	Tie2.1.M100cR (antibody, IgG1, name in Kabat numbering, V domains shown, hIgG1) VH: EVQLVESGGGLVQPGGSLRLSCAASGFTFSNTDISWVRQAPGKGLEWVGRISPSDGNTYYADSVKGRFTISADTSKNTAYLQMNSLRAEDTAVYYCARRTRWASWARDYWGQGTLVTVSS VL: DIQMTQSPSSLSASVGDRVTITCRASQDVSTAVAWYQQKPGKAPKLLIYSASFLYSGVPSRFSGSGSGTDFTLTISSLQPEDFATYYCQQSYTTPPTFGQGTKVEIKR
0.11	0.39	0.13	0.41	–	–	–	–	Tie2.1.M100cK (antibody, IgG1, name in Kabat numbering, V domains shown, hIgG1) VH: EVQLVESGGGLVQPGGSLRLSCAASGFTFSNTDISWVRQAPGKGLEWVGRISPSDGNTYYADSVKGRFTISADTSKNTAYLQMNSLRAEDTAVYYCARRTRWASWAKDYWGQGTLVTVSS VL: DIQMTQSPSSLSASVGDRVTITCRASQDVSTAVAWYQQKPGKAPKLLIYSASFLYSGVPSRFSGSGSGTDFTLTISSLQPEDFATYYCQQSYTTPPTFGQGTKVEIKR
0.02	0.1	0.02	0.11	–	–	–	–	Tie2.1.M100cP (antibody, IgG1, name in Kabat numbering, V domains shown, hIgG1) VH: EVQLVESGGGLVQPGGSLRLSCAASGFTFSNTDISWVRQAPGKGLEWVGRISPSDGNTYYADSVKGRFTISADTSKNTAYLQMNSLRAEDTAVYYCARRTRWASWAPDYWGQGTLVTVSS VL: DIQMTQSPSSLSASVGDRVTITCRASQDVSTAVAWYQQKPGKAPKLLIYSASFLYSGVPSRFSGSGSGTDFTLTISSLQPEDFATYYCQQSYTTPPTFGQGTKVEIKR
0.07	0.29	0.08	0.31	–	–	–	–	Tie2.1.M100cW (antibody, IgG1, name in Kabat numbering, V domains shown, hIgG1) VH: EVQLVESGGGLVQPGGSLRLSCAASGFTFSNTDISWVRQAPGKGLEWVGRISPSDGNTYYADSVKGRFTISADTSKNTAYLQMNSLRAEDTAVYYCARRTRWASWAWDYWGQGTLVTVSS VL: DIQMTQSPSSLSASVGDRVTITCRASQDVSTAVAWYQQKPGKAPKLLIYSASFLYSGVPSRFSGSGSGTDFTLTISSLQPEDFATYYCQQSYTTPPTFGQGTKVEIKR
0.04	0.15	0.04	0.16	–	–	–	–	Tie2.1.M100cV (antibody, IgG1, name in Kabat numbering, V domains shown, hIgG1) VH: EVQLVESGGGLVQPGGSLRLSCAASGFTFSNTDISWVRQAPGKGLEWVGRISPSDGNTYYADSVKGRFTISADTSKNTAYLQMNSLRAEDTAVYYCARRTRWASWAVDYWGQGTLVTVSS VL: DIQMTQSPSSLSASVGDRVTITCRASQDVSTAVAWYQQKPGKAPKLLIYSASFLYSGVPSRFSGSGSGTDFTLTISSLQPEDFATYYCQQSYTTPPTFGQGTKVEIKR
0.1	0.36	0.11	0.38	–	–	–	–	Tie2.1.M100cN (antibody, IgG1, name in Kabat numbering, V domains shown, hIgG1) VH: EVQLVESGGGLVQPGGSLRLSCAASGFTFSNTDISWVRQAPGKGLEWVGRISPSDGNTYYADSVKGRFTISADTSKNTAYLQMNSLRAEDTAVYYCARRTRWASWANDYWGQGTLVTVSS VL: DIQMTQSPSSLSASVGDRVTITCRASQDVSTAVAWYQQKPGKAPKLLIYSASFLYSGVPSRFSGSGSGTDFTLTISSLQPEDFATYYCQQSYTTPPTFGQGTKVEIKR

— US20210332142A1 (Genentech, published 2021)
